In patent publication US20200072831A1 one finds MFI data, which are given here for one substance.

Assay [1] addresses DRB5*01:01 HLA Class II antigen expressed in a K cell line host (K562), lacking a CLIP peptide in the peptide binding groove (human). The experiment in a line: Luminex bead assay, Streptavidin-PE detection of biotinylated CLIP; no-peptide control beads.
Assay [2] has as its target DRB1*03:01 HLA Class II antigen loaded in vitro with biotinylated CLIP peptide (human). Description: Luminex bead assay, Streptavidin-PE detection of biotinylated CLIP loaded on the antigen.
Assay [3] addresses DRB5*01:01 HLA Class II antigen (K cell line host) loaded in vitro with biotinylated CLIP peptide (human). The description is as above.

Chain of DRB1*03:01 HLA Class II antigen loaded in vitro with biotinylated CLIP peptide (human) (P04233 97-121 limits assumed, chain 3 of 3, other chains not shown): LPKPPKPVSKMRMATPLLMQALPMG

Take “Anti-biotinylated CLIP (Streptavidin-PE, to detect the presence of the biotinylated CLIP) (from UniProt P22629 37-163)”: the MFI in assay [1] was 840 MFI; in assay [2], 2810 MFI; in assay [3], 4600 MFI.
